Measured values taken from PMC4040697 (Cell Death & Disease, 2014).
Each block holds one binder with its values, some of them ahead of it.

Experiments:
[1] = molecular target: T1, glutathione transferase P1-1 (GSTP1-1), native (UniProt P09211 1-210); experiment: ELISA
[2] = molecular target: T1, glutathione transferase P1-1 (GSTP1-1), …; experiment: ELISA; remark: listed apart in the source
[3] = molecular target: T1, glutathione transferase P1-1 (GSTP1-1), …; experiment: ELISA; remark: listed apart in the source
[4] = molecular target: 'Oxidized' GSTP1-1 (oxidatively inactivated) (UniProt P09211 1-210, one intra-chain disulfide bond between cysteine 47 and 101); experiment: ELISA
[5] = molecular target: T1, glutathione transferase P1-1 (GSTP1-1), …; experiment: ELISA; remark: listed apart in the source
[6] = molecular target: T1, glutathione transferase P1-1 (GSTP1-1), …; experiment: ELISA; remark: listed apart in the source
[7] = molecular target: T1, glutathione transferase P1-1 (GSTP1-1), …; experiment: ELISA; remark: listed apart in the source
[8] = molecular target: T1, glutathione transferase P1-1 (GSTP1-1), …; experiment: ELISA; remark: listed apart in the source
[9] = molecular target: T1, glutathione transferase P1-1 (GSTP1-1), …; experiment: other fluorescence titration
[10] = molecular target: T1, glutathione transferase P1-1 (GSTP1-1), …; experiment: other fluorescence titration; remark: listed apart in the source

T1 sequence (P09211 whole entry): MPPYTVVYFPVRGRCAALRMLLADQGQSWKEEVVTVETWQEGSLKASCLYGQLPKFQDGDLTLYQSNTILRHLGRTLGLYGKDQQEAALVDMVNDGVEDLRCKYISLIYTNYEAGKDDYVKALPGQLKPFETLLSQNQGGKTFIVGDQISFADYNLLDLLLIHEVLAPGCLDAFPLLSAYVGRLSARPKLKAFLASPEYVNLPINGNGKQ
'Oxidized' GSTP1-1 (oxidatively inactivated), sequence (P09211 whole entry): as above

Kd [1]: 930 nM
Kd [2]: 490 nM
Kd [3]: 290 nM
Kd [4]: 1700 nM
Kd [5]: 1200 nM
Kd [6]: 2700 nM
Kd [7]: 2600 nM
Kd [8]: ≥ 5000 nM
B1: His-tagged C-terminal domain of TRAF2 (residues 310–501) (domain or fragment, human, UniProt Q12933 310-501, looked up)
chain: DQDKIEALSSKVQQLERSIGLKDLAMADLEQKVLEMEASTYDGVFIWKISDFARKRQEAVAGRIPAIFSPAFYTSRYGYKMCLRIYLNGDGTGRGTHLSLFFVVMKGPNDALLRWPFNQKVTLMLLDQNNREHVIDAFRPDVTSSSFQRPVNDMNIASGCPLFCPVSKMEAKNSYVRDDAIFIKAIVDLTGL

Kd [9]: 300 nM
Kd [10]: 4600 nM
B2: Dansylated TRAF2 (C-terminal domain, residues 310–501) (domain or fragment, human, UniProt Q12933 310-501, looked up)
chain: B1 chain
modifications: dansyl, mole ratio of dansyl/TRAF2 2 : 1; labelled residues not stated
